We go through 3 molecules from patent US20210405060A1 (published 2021).

The target of assay [1] is PTP1BS187C lite / C3-SLF conjugate (UniProt P18031). Put plainly: X-ray crystal structure FKBP12-C3SLF-PTP1BS187C.
For assay [2], the target named is MCL1S245C lite / C3-SLF conjugate (UniProt Q07820). Nature of the assay: X-ray crystal structure MCL1S245C/C3SLF/FKBP52, 3.0 Å.
In assay [3] the target is T1, 12xHIS tagged FKBP12 / Compound 1 binary complex (UniProt P62942 1-108, limits assumed).
T1 construct: Immobilized on an NTA chip, with 1 µM Compound 1 in all buffers; also called immobilized FKBP12-Compound 1 binary complex; not shown: 12xHIS tag
Put plainly: SPR (Biacore X100), 12xHIS FKBP12 on NTA chip with 1 µM Compound 1, CEP250 as analyte, 1:1 model, 25 °C. The procedure: Experimental Protocol: Experiments are performed at 25° C. […] The second flow cell is not activated as a reference for non-specific interaction of the analyte to the sensor chip. […] The surface is regenerated between analyte injections with 350 mM EDTA.
Data Fitting: The BiaEvaluation software program is used for data fitting. All data is reference subtracted against both the reference flow cell and a buffer injection. For kinetic analyses, data is locally fit to a 1:1 interaction model.

The target of assay [4] is T2, FKBP12-Compound 2 binary complex (UniProt P62942 1-108).
T2 construct: FKBP12 (10 µM) pre-incubated with 20 µM of the non-covalent ligand Compound 2 in the ITC cell
Nature of the assay: ITC, 298 K; FKBP12 + Compound 2 in cell, CEP25011.4 in syringe. Here is the method:
(§1) CEP250 protein stocks are diluted to 50 μM in assay buffer and supplemented with 20 μM compound (1% DMSO final) before being filled into the injection syringe. A control experiment in the absence of compound is also run to determine the heat associated with operational artifacts and the dilution of titrant as it is injected from the syringe into the reaction cell.
(§2) Data Fitting: Data were fitted with the Origin ITC200 software according to the following procedure: [0473] 1) Read raw data [0474] 2) In “mRawITC”: adjust integration peaks and baseline, integrate all peaks [0475] 3) In “Delta H”—data control: remove bad data (injection #1 and other artifacts), subtract straight line (background subtraction) [0476] 4) In “Delta H”—model fitting: select one set of sites model, perform fitting with Levenberg-Marquardt algorithm until Chi Square is not reduced further, finish with “done” (parameters N, Kₐ and ΔH are calculated based on fitting)

In assay [5] the target is T3, FKBP12-Compound 1 binary complex (UniProt P62942 1-108).
T3 construct: FKBP12 (10 µM) pre-incubated with 20 µM of the non-covalent ligand Compound 1 in the ITC cell
Nature of the assay: ITC, 298 K; FKBP12 + Compound 1b in cell, CEP25011.4 in syringe. Here is the method: as §1, §2

MCL1S245C lite / C3-SLF conjugate, sequence (Q07820 other isoform, or with tags, fused parts or gaps with the stated changes limits assumed): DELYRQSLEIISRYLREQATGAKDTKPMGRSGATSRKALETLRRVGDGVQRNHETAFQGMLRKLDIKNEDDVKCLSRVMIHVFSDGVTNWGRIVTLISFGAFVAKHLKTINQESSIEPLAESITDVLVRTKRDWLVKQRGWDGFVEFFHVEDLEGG
PTP1BS187C lite / C3-SLF conjugate, sequence (P18031 other isoform, or with tags, fused parts or gaps limits assumed, change not shown): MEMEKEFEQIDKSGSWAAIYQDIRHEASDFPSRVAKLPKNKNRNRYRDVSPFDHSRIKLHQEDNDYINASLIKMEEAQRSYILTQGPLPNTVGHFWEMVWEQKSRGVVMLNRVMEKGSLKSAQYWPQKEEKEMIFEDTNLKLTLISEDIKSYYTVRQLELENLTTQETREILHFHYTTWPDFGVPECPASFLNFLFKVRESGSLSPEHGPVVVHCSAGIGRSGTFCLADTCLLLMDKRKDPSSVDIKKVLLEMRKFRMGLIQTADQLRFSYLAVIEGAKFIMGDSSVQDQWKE
T2 sequence (P62942 whole entry, one chain of several): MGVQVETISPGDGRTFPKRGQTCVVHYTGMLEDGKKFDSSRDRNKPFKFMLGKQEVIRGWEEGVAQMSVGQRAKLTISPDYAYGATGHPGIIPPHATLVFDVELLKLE
T1 sequence (P62942 whole entry, one chain of several): as above
T3 sequence (P62942 whole entry, one chain of several): as above

For the molecule “FKBP12 (in-house) (from UniProt P62942 1-108) (enzyme)”, in assay [1], the buried surface area of PTP1BS187C was determined as 427 Å^2 and the total buried surface area of the complex is 1040 Å^2.

B1: FKBP52 (in-house, residues 1-140) (enzyme, UniProt Q02790 1-140, looked up)
chain: MTAEEMKATESGAQSAPLPMEGVDISPKQDEGVLKVIKREGTGTEMPMIGDRVFVHYTGWLLDGTKFDSSLDRKDKFSFDLGKGEVIKAWDIAIATMKVGEVCHITCKPEYAYGSAGSPPKIPPNATLVFEVELFEFKGE
On to B1, for which, in assay [2], the buried surface area contributed by FKBP52 worked out at 804 Å^2, the share of buried surface area contributed by FKBP52 turned out to be 60% and the total buried surface area of the complex came to 1410 Å^2.

B2: CEP25011.4 (residues 2134-2231) (other, UniProt Q9BV73 2134-2231, looked up)
chain: MEEQSLKLDSLEPRLQRELERLQAALRQTEAREIEWREKAQDLALSLAQTKASVSSLQEVAMFLQASVLERDSEQQRLQDELELTRRALEKERLHSPG
notes: range 2134-2231
With B2, the dissociation constant Kd in assay [3] amounted to 5.4 nM; in assay [4], 80 nM; in assay [5], 70 nM.
